Laboratory results reported in patent US20040086966A1 (EUROSCREEN S A, published 2004).
No end group written: not given here.

B1: YHSFFFPGQFAFS peptide (unlabeled) (peptide)
peptide: YHSFFFPGQFAFS
notes: also called unlabeled peptide; unlabel peptide
B2: human Prochemerin (recombinant, unprocessed) (ligand)
chain: ELTEAQRRGLQVALEEFHKHPPVQWAFQETSVESAVDTPFPAGIFVRLEFKLQQTSCRKRDWKKPECKVRPNGRKRKCLACIKLGSEDKVLGRLVHCPIETQVLREAEEHQETQCLRVQRAGEDPHSFYFPGQFAFSKALPRS

Columns and labels:
human ChemerinR [1] = target: T1, human ChemerinR (human, UniProt Q99788 3-373); test: cell-based or functional assay
T1 sequence: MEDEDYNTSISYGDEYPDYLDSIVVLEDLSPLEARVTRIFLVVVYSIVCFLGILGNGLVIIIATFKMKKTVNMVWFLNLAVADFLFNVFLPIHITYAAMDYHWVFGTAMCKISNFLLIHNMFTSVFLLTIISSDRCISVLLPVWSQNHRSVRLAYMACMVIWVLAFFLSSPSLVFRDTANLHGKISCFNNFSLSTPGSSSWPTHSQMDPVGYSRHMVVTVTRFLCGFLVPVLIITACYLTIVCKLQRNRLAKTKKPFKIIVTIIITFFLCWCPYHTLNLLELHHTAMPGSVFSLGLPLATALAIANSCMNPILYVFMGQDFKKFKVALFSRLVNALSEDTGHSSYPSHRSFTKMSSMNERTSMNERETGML

human ChemerinR [2] = target: T1, human ChemerinR; test: cell-based or functional assay; remark: listed apart in the source
human ChemerinR [3] = target: T1, human ChemerinR; test: competition binding on ChemerinR-expressing CHO-K1 cells; tracer (competed ligand) 125I-…
Method: (§1) ChemerinR expressing CHO-K1 cells were collected from plates with PBS supplemented with 5 mM EDTA, gently pelleted for 2 min at 1000×g, and resuspended in binding buffer (50 mM HEPES, pH 7.4, 1 mM CaCl₂, 5 mM MgCl₂, 0.5% BSA). […] Filters were counted in a […]-scintillation counter. Binding parameters were determined with the PRISM software (Graphpad Software) using nonlinear regression applied to a one-site competition model.

human ChemerinR [4] = target: T1, human ChemerinR; test: competition binding on ChemerinR-expressing CHO-K1 cells, tracer 125I-…, one-site model, 3 experiments
Method: as §1

| Mean EC50, intracellular calcium release (aequorin assay) (human ChemerinR [1]) [nM] | further results | Binder |
| --- | --- | --- |
| 160000 | – | QRAGEDPHSFYFPGQFAFSKALPRS [Human prochemerin-25] |
| 16.7 | – | QRAGEDPHSFYFPGQFAFS [Human Chemerin-19] |
| 170000 | – | QRAGEDPHSFYFPGQFAFSK [Human [Lys20]Chemerin-19] |
| 97 | – | QRAGEDPHSFYFPGQFAF [Human [delta-Ser19]Chemerin-19] |
| 220000 | – | QRAGEDPHSFYFPGQFA [Human [delta-Phe18Ser19]Chemerin-19] |
| 130000 | – | QRAGEDPHSFYFPGQF [Human [delta-Ala17Phe18Ser19]Chemerin-19] |
| 220000 | – | PGQFAFS [Human Chemerin-7] |
| 2000 | – | FPGQFAFS [Human Chemerin-8] |
| 8.2 | – | FYFPGQFAFS [Human Chemerin-10] |
| 12.2 | – | HSFYFPGQFAFS [Human Chemerin-12] |
| 14 | – | PHSFYFPGQFAFS (not fully specified) [Human Chemerin-13] |
| 496 | – | AFPGQFAFS [Human [Ala-1]Chemerin-9] |
| 155 | – | YAPGQFAFS [Human [Ala-2]Chemerin-9] |
| 5000 | – | YFPGQAAFS [Human [Ala-6]Chemerin-9] |
| 38000 | – | YFPGQFAAS [Human [Ala-8]Chemerin-9] |
| – | EC50, aequorin-based assay (human ChemerinR [2]): 28 nM; IC50 (read off the curve) (human ChemerinR [3]): ~20 nM; Ki (human ChemerinR [4]): 12.1 nM; pKi (human ChemerinR [4]): 7.95 | B1 |
| – | EC50, biological activity on CHO-K1 cells expressing human ChemerinR (aequorin assay) (human ChemerinR [2]): 393 nM | B2 |
